Experimental data published in IntAct's records for PubMed 29892012.

B1: Chaperone Ric-8A (Homo sapiens), Q9NPQ8 (parent)
chain: MEPRAVAEAVETGEEDVIMEALRSYNQEHSQSFTFDDAQQEDRKRLAELLVSVLEQGLPPSHRVIWLQSVRILSRDRNCLDPFTSRQSLQALACYADISVSEGSVPESADMDVVLESLKCLCNLVLSSPVAQMLAAEARLVVKLTERVGLYRERSFPHDVQFFDLRLLFLLTALRTDVRQQLFQELKGVRLLTDTLELTLGVTPEGNPPPTLLPSQETERAMEILKVLFNITLDSIKGEVDEEDAALYRHLGTLLRHCVMIATAGDRTEEFHGHAVNLLGNLPLKCLDVLLTLEPHGDSTEFMGVNMDVIRALLIFLEKRLHKTHRLKESVAPVLSVLTECARMHRPARKFLKAQVLPPLRDVRTRPEVGEMLRNKLVRLMTHLDTDVKRVAAEFLFVLCSESVPRFIKYTGYGNAAGLLAARGLMAGGRPEGQYSEDEDTDTDEYKEAKASINPVTGRVEEKPPNPMEGMTEEQKEHEAMKLVTMFDKLSRNRVIQPMGMSPRGHLTSLQDAMCETMEQQLSSDPDSDPD
partner: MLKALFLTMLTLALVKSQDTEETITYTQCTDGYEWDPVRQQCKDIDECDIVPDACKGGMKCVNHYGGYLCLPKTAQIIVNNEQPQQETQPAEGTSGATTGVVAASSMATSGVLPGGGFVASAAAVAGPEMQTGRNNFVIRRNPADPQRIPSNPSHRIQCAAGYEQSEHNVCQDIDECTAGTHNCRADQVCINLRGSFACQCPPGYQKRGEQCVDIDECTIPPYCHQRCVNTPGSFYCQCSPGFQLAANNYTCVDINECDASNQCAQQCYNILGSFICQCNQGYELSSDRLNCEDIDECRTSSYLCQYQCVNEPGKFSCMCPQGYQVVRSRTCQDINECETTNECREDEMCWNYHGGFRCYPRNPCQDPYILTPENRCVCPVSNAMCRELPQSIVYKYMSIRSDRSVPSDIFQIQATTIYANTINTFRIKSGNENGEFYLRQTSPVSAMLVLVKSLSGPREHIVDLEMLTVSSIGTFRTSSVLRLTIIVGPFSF
B2: Ligand of Numb protein X 2 (Homo sapiens), Q8N448 (parent)
chain: MGTTSDEMVSVEQTSSSSLNPLCFECGQQHWTRENHLYNYQNEVDDDLVCHICLQPLLQPLDTPCGHTFCYKCLRNFLQEKDFCPLDRKRLHFKLCKKSSILVHKLLDKLLVLCPFSSVCKDVMQRCDLEAHLKNRCPGASHRRVALERRKTSRTQAEIENENGPTLLDPAGTLSPEADCLGTGAVPVERHLTSASLSTWSEEPGLDNPAFEESAGADTTQQPLSLPEGEITTIEIHRSNPYIQLGISIVGGNETPLINIVIQEVYRDGVIARDGRLLAGDQILQVNNYNISNVSHNYARAVLSQPCNTLHLTVLRERRFGNRAHNHSDSNSPREEIFQVALHKRDSGEQLGIKLVRRTDEPGVFILDLLEGGLAAQDGRLSSNDRVLAINGHDLKYGTPELAAQIIQASGERVNLTIARPGKPQPGNTIREAGNHSSSSQHHTPPPYYSRPSSHKDLTQCVTCQEKHITVKKEPHESLGMTVAGGRGSKSGELPIFVTSVPPHGCLARDGRIKRGDVLLNINGIDLTNLSHSEAVAMLKASAASPAVALKALEVQIVEEATQNAEEQPSTFSENEYDASWSPSWVMWLGLPSTLHSCHDIVLRRSYLGSWGFSIVGGYEENHTNQPFFIKTIVLGTPAYYDGRLKCGDMIVAVNGLSTVGMSHSALVPMLKEQRNKVTLTVICWPGSLV
partner: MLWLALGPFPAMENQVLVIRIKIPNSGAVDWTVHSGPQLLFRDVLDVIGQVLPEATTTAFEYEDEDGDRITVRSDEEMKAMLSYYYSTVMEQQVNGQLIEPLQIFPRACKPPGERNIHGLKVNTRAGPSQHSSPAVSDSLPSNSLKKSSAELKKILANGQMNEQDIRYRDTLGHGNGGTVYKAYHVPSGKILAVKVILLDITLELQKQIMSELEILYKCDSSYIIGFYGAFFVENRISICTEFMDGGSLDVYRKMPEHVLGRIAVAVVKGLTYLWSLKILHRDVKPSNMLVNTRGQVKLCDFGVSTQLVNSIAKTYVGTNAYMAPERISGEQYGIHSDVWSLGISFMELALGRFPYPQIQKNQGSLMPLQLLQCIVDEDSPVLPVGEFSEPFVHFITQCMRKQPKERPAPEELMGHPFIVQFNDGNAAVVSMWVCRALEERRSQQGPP
B3: Transcription factor RFX3 (Homo sapiens), P48380 (parent)
chain: MQTSETGSDTGSTVTLQTSVASQAAVPTQVVQQVPVQQQVQQVQTVQQVQHVYPAQVQYVEGSDTVYTNGAIRTTTYPYTETQMYSQNTGGNYFDTQGSSAQVTTVVSSHSMVGTGGIQMGVTGGQLISSSGGTYLIGNSMENSGHSVTHTTRASPATIEMAIETLQKSDGLSTHRSSLLNSHLQWLLDNYETAEGVSLPRSTLYNHYLRHCQEHKLDPVNAASFGKLIRSIFMGLRTRRLGTRGNSKYHYYGIRVKPDSPLNRLQEDMQYMAMRQQPMQQKQRYKPMQKVDGVADGFTGSGQQTGTSVEQTVIAQSQHHQQFLDASRALPEFGEVEISSLPDGTTFEDIKSLQSLYREHCEAILDVVVNLQFSLIEKLWQTFWRYSPSTPTDGTTITESSNLSEIESRLPKAKLITLCKHESILKWMCNCDHGMYQALVEILIPDVLRPIPSALTQAIRNFAKSLEGWLSNAMNNIPQRMIQTKVAAVSAFAQTLRRYTSLNHLAQAARAVLQNTSQINQMLSDLNRVDFANVQEQASWVCQCDDNMVQRLETDFKMTLQQQSTLEQWAAWLDNVMMQALKPYEGRPSFPKAARQFLLKWSFYSSMVIRDLTLRSAASFGSFHLIRLLYDEYMFYLVEHRVAQATGETPIAVMGEFGDLNAVSPGNLDKDEGSEVESEMDEELDDSSEPQAKREKTELSQAFPVGCMQPVLETGVQPSLLNPIHSEHIVTSTQTIRQCSATGNTYTAV
partner: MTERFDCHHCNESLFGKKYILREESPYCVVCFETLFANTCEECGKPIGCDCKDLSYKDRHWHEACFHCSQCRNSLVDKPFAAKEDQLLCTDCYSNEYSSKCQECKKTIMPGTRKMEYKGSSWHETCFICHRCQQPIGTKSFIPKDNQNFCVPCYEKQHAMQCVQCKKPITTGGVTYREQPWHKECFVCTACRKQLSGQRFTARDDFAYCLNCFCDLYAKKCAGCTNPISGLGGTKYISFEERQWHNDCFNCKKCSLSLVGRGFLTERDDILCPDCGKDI
B4: Zyxin (Homo sapiens), Q15942 (parent)
chain: MAAPRPSPAISVSVSAPAFYAPQKKFGPVVAPKPKVNPFRPGDSEPPPAPGAQRAQMGRVGEIPPPPPEDFPLPPPPLAGDGDDAEGALGGAFPPPPPPIEESFPPAPLEEEIFPSPPPPPEEEGGPEAPIPPPPQPREKVSSIDLEIDSLSSLLDDMTKNDPFKARVSSGYVPPPVATPFSSKSSTKPAAGGTAPLPPWKSPSSSQPLPQVPAPAQSQTQFHVQPQPQPKPQVQLHVQSQTQPVSLANTQPRGPPASSPAPAPKFSPVTPKFTPVASKFSPGAPGGSGSQPNQKLGHPEALSAGTGSPQPPSFTYAQQREKPRVQEKQHPVPPPAQNQNQVRSPGAPGPLTLKEVEELEQLTQQLMQDMEHPQRQNVAVNELCGRCHQPLARAQPAVRALGQLFHIACFTCHQCAQQLQGQQFYSLEGAPYCEGCYTDTLEKCNTCGEPITDRMLRATGKAYHPHCFTCVVCARPLEGTSFIVDQANRPHCVPDYHKQYAPRCSVCSEPIMPEPGRDETVRVVALDKNFHMKCYKCEDCGKPLSIEADDNGCFPLDGHVLCRKCHTARAQT
partner: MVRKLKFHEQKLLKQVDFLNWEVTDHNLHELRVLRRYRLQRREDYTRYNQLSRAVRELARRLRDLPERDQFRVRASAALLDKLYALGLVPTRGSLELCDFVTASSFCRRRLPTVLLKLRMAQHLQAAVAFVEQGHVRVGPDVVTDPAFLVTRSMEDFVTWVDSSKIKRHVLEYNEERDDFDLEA
B5: Protein VAC14 homolog (Homo sapiens), Q08AM6 (parent)
chain: MNPEKDFAPLTPNIVRALNDKLYEKRKVAALEIEKLVREFVAQNNTVQIKHVIQTLSQEFALSQHPHSRKGGLIGLAACSIALGKDSGLYLKELIEPVLTCFNDADSRLRYYACEALYNIVKVARGAVLPHFNVLFDGLSKLAADPDPNVKSGSELLDRLLKDIVTESNKFDLVSFIPLLRERIYSNNQYARQFIISWILVLESVPDINLLDYLPEILDGLFQILGDNGKEIRKMCEVVLGEFLKEIKKNPSSVKFAEMANILVIHCQTTDDLIQLTAMCWMREFIQLAGRVMLPYSSGILTAVLPCLAYDDRKKSIKEVANVCNQSLMKLVTPEDDELDELRPGQRQAEPTPDDALPKQEGTASGGPDGSCDSSFSSGISVFTAASTERAPVTLHLDGIVQVLNCHLSDTAIGMMTRIAVLKWLYHLYIKTPRKMFRHTDSLFPILLQTLSDESDEVILKDLEVLAEIASSPAGQTDDPGPLDGPDLQASHSELQVPTPGRAGLLNTSGTKGLECSPSTPTMNSYFYKFMINLLKRFSSERKLLEVRGPFIIRQLCLLLNAENIFHSMADILLREEDLKFASTMVHALNTILLTSTELFQLRNQLKDLKTLESQNLFCCLYRSWCHNPVTTVSLCFLTQNYRHAYDLIQKFGDLEVTVDFLAEVDKLVQLIECPIFTYLRLQLLDVKNNPYLIKALYGLLMLLPQSSAFQLLSHRLQCVPNPELLQTEDSLKAAPKSQKADSPSIDYAELLQHFEKVQNKHLEVRHQRSGRGDHLDRRVVL
partner: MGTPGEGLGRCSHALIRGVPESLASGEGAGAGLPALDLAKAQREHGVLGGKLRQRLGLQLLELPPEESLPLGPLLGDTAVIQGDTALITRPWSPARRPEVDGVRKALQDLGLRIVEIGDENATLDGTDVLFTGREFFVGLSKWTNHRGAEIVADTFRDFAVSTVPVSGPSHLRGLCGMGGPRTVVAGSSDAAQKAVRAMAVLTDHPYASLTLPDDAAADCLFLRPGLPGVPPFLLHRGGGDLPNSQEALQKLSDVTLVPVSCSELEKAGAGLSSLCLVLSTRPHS

Variants of: B1
Settings: with fbln3_human EFEMP1, Q12805

Row | Variant | effect of a mutation on the interaction
1 | K319E | with no effect

Variants of: B2
Settings: with mp2k5_human MAP2K5, Q13163

Row | Variant | effect of a mutation on the interaction
2 | P669A | with no effect

Variants of: B3
Settings: with fhl2_human FHL2, Q14192

Row | Variant | effect of a mutation on the interaction
3 | S387C | with no effect

Variants of: B3
Settings: with fhl2_human FHL2, Q14192
Remark: another data set of the same source

Row | Variant | effect of a mutation on the interaction
4 | Y135D | with no effect

Variants of: B4
Settings: with imp3_human IMP3, Q9NV31

Row | Variant | effect of a mutation on the interaction
5 | R167G | with no effect

Variants of: B5
Settings: with ddah2_human DDAH2, O95865

Row | Variant | effect of a mutation on the interaction
6 | A127S | with no effect
